For this experiment, the target named is 人CD47 (human) (UniProt Q08722). In words: flow cytometry on red blood cells, commercial B6H12.2 as comparison. For orientation: In flow cytometry, cells or beads pass a laser one at a time.

B1: 商品化抗CD47抗体B6H12.2 (antibody, from another filing)
scFv: EVQLVESGGDLVKPGGSLKLSCAASGFTFSGYGMSWVRQTPDKRLEWVATITSGGTYTYYPDSVKGRFTISRDNAKNTLYLQIDSLKSEDTAIYFCARSLAGNAMDYWGQGTSVTVSSGGGGSGGGGSGGGGSDIVMTQSPATLSVTPGDRVSLSCRASQTISDYLHWYQQKSHESPRLLIKFASQSISGIPSRFSGSGSGSDFTLSINSVEPEDVGVYYCQNGHGFPRTFGGGTKLEIKEQKLISEEDL
B1 had a 结合率 of 99.2%.

Values taken from CN111087470A.
